Laboratory results taken from article PMC9329571, “Regulation of TIA-1 Condensates: Zn2+ and RGG Motifs Promote Nucleic Acid Driven LLPS and Inhibit Irreversible Aggregation”.

B1: TIA-1 RRM2,3 (amino acids 93-274), wild type [not stated] / itself (parent)
chain: NHFHVFVGDLSPEITTEDIKAAFAPFGRISDARVVKDMATGKSKGYGFVSFFNKWDAENAIQQMGGQWLGGRQIRTNWATRKPPAPKSTYESNTKQLSYDEVVNQSSPSNCTVYCGGVTSGLTEQLMRQTFSPFGQIMEIRVFPDKGYSFVRFNSHESAAHAIVSVNGTTIEGHVVKCYWGK

Variants of: B1
Experiment: turbidity (A385 nm)
Conditions: with itself; TIA-1:ZnCl2 ratio 1:8; 20 µM protein; 20 mM HEPES, 50 mM NaCl, 1 mM TCEP, pH 6.9, 25°C, within 30 min incubation under shaking; read off a plot

response [A.U.] | Variant
0.058 | NAFHVFVGDLSPEITTEDIKAAFAPFGRISDARVVKDMATGKSKGYGFVSFFNKWDAENAIQQMGGQWLGGRQIRTNWATRKPPAPKSTYESNTKQLSYDEVVNQSSPSNCTVYCGGVTSGLTEQLMRQTFSPFGQIMEIRVFPDKGYSFVRFNSHESAAHAIVSVNGTTIEGHVVKCYWGK [chain 1 H2A]
0.056 | NAFAVFVGDLSPEITTEDIKAAFAPFGRISDARVVKDMATGKSKGYGFVSFFNKWDAENAIQQMGGQWLGGRQIRTNWATRKPPAPKSTYESNTKQLSYDEVVNQSSPSNCTVYCGGVTSGLTEQLMRQTFSPFGQIMEIRVFPDKGYSFVRFNSHESAAHAIVSVNGTTIEGHVVKCYWGK [chain 1 H2A H4A]
0.072 | NHFAVFVGDLSPEITTEDIKAAFAPFGRISDARVVKDMATGKSKGYGFVSFFNKWDAENAIQQMGGQWLGGRQIRTNWATRKPPAPKSTYESNTKQLSYDEVVNQSSPSNCTVYCGGVTSGLTEQLMRQTFSPFGQIMEIRVFPDKGYSFVRFNSHESAAHAIVSVNGTTIEGHVVKCYWGK [chain 1 H4A]
